We go through one molecule from paper PMC2691816 (Nucleic Acids Research, 2009).

The experiment concerns the target purified hXRCC1 protein (human, UniProt P18887 1-633). The experiment is described as follows: far-Western, overlay or dot blot.

Chain of purified hXRCC1 protein (P18887 whole entry): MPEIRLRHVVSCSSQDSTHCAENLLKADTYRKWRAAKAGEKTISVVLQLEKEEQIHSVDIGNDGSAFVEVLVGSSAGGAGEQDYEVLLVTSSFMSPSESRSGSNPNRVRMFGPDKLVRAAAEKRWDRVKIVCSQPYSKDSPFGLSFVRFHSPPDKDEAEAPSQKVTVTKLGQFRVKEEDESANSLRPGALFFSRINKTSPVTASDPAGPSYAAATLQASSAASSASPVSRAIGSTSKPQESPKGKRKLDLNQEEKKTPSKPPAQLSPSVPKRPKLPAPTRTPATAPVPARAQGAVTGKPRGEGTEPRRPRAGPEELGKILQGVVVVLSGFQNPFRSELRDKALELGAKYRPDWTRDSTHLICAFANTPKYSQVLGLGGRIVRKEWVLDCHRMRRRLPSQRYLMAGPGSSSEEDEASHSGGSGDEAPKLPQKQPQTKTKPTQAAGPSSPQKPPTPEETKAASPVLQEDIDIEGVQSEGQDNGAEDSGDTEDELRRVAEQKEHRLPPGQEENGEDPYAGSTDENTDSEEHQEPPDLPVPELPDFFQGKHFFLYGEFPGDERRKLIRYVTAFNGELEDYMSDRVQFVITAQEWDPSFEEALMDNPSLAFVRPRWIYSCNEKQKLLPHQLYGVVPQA

B1: His-tagged p58 N-terminal domain (amino acids 1–266) (domain or fragment, human, UniProt P49643 1-266, looked up)
chain: MEFSGRKWRKLRLAGDQRNASYPHCLQFYLQPPSENISLIEFENLAIDRVKLLKSVENLGVSYVKGTEQYQSKLESELRKLKFSYRENLEDEYEPRRRDHISHFILRLAYCQSEELRRWFIQQEMDLLRFRFSILPKDKIQDFLKDSQLQFEAISDEEKTLREQEIVASSPSLSGLKLGFESIYKIPFADALDLFRGRKVYLEDGFAYVPLKDIVAIILNEFRAKLSKALALTARSLPAVQSDERLQPLLNHLSHSYTGQDYSTQG
Take B1: the binding result was “binds”.
